# Source: the nanobody polyreactivity screen of Harvey et al. (2022)
# Experiment: yeast display, Sf9 membrane polyspecificity reagent, FACS + sequencing; frameworks hold sequencing errors
# Procedure, shortened: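 Genes from sorted yeast were amplified by colony PCR, read by MiSeq 2 × 250 sequencing and filtered on CDR length. These cells carried a synthetic nanobody library in Saccharomyces cerevisiae BJ5465 and were sorted by FACS into low and high (top ~1%) gates on anti-HA and streptavidin fluorescence. Polyreactivity is labelled according to the gate of origin.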
row,Sequence,polyreactivity (PSR sort gate)
1,QVQLVESGGGLVQAGGSLRLSCAASGLTFDWYTMGWYRQAPGKERELVATINSGGSTDYADSVKGRFTISRDNAKNNVYLQMNSLKPEDTAVYYCNAEYGYSGVGDDYWGQGTQVTVSS,low polyreactivity
2,QVQLVESGGGLVQAGGSLRLSCAASGLTFDWYTMGWYRQAPGKERELVATINSGGSTDYADSVKRRFTISRDNAKNTVYLQMNSLKPEDTAVYYCAAQPFVIDGGYRGDYWGQGTQVTVSS,low polyreactivity
3,QVQLVESGGGLVQAGGSLRLSCAASGLTFDYYAMGWYRQAPGKERELVAAISASCSSTYYADSVKGRFTISRDNAKNTVYLQMNSLKPEDTAVYYCAAVTKSSVPGSRYDYWGQGTQVTVSS,high polyreactivity
4,QVQLVESGGGLVQAGGSLRLSCAASGLTFDYYAMGWYRQAPGKERELVAAITRRGGGTYYADSVKGRFTISRDNAKNTVYLQMNSLKPEDTAVYYCNADRRSWSALHRYDYWGQGTQVTVSS,high polyreactivity
5,QVQLVESGGGLVQAGGSLRLSCAASGLTFDYYAMGWYRQAPGKERELVAAITSSGGRTYYADSVKGRFTISRDNPNKTVYLQMNSLKPEDTAVYYCAADPYSVYGGDYWGQGTQVTVSS,low polyreactivity
6,QVQLVESGGGLVQAGGSLRLSCAASGLTFEKYAMGWYRQAPGKEREMVAAISQDGGSTYYADSVKGRFTISRDNAKNTVYLQMNSLKPEDTAVYYCAAEDPDSWLPWDLFYYWGQGTQVTVSS,low polyreactivity
7,QVQLVESGGGLVQAGGSLRLSCAASGLTFELYAMGWYRQAPGKERELVAAITWSGGRTYYADSVKGRFTISRDNAKNTVYLQMNSLKPEDTAVYYCAADVYPGYVGSQEYDYWGQGTQVTVSS,low polyreactivity
8,QVQLVESGGGLVQAGGSLRLSCAASGLTFEVYAMGWYRQAPGKERELVAAISSGGGSTYYADSVKGRFTISRDNAKYTVYLQMNSLKPEDSAVYYCNAVAKLYYWRYDYWGQGTQVTVSS,low polyreactivity
9,QVQLVESGGGLVQAGGSLRLSCAASGLTFEYYAMGWYRQAPGKERELVAAITSTGSTNYADSVKGRFTISRDNAKNTVYLQMNSLKPEDTAVYFCNAEKPEGSTLYDYDYWGQGTQVTVSS,low polyreactivity
10,QVQLVESGGGLVQAGGSLRLSCAASGLTFEYYTMGWYRQAPGIERELVAAITSSGGSTYYADSVKGRFTISRDNAKNTVYLQMISLKPEDTAVYYCNAYWTYEFPSYEYWGQGTQVTVSS,low polyreactivity
11,QVQLVESGGGLVQAGGSLRLSCAASGLTFEYYTMGWYRQAPGKERELVAAITSSGGSTYYADSVKGRFTISRDNAKNTVYLQMNSLKPEDTAVYYCAARWRHYFVWKSYDYWGQGTQVTVSS,low polyreactivity
12,QVQLVESGGGLVQAGGSLRLSCAASGLTFEYYTMGWYRQAPGKERELVAAITSSGGSTYYADSVKGRFTISRDNAKNTVYLQMNSLKPEDTAVYYCNAYWTYEFPSYDYWGQGTQVTVSS,low polyreactivity
13,QVQLVESGGGLVQAGGSLRLSCAASGLTFFAYPMGWYRQAPGKERELVAVITSSGGSTNYADSVKGRFTISRDTPKNTVYLQMNSLKPEDTAVYYCAAYIRYTLPTSRGFGYWGQGTQVTVSS,high polyreactivity
14,QVQLVESGGGLVQAGGSLRLSCAASGLTFFKYTMGWYRQAPGKERELVAAISSSGGSTRYADSVKGRFTISRDNAKNTVYLQMNSLKPEDTAVYYCAKRGYTSSRRWIYDYWGQGTQVTVSS,high polyreactivity
15,QVQLVESGGGLVQAGGSLRLSCAASGLTFFKYTMGWYRQPPGKERELVSAINGGGSTNYADSVKGRFSISRDNAKNTVYLQMNSLKPEDTAVYYCAAGLQYGYDYWGQGTQVTVSS,low polyreactivity
16,QVQLVESGGGLVQAGGSLRLSCAASGLTFGFYAMGWYRQAPGKERELVAGISNGGSTNYADSVKARFTISRDNAKNTVYLQMNSLKPEDTAVFYCAAQGEYGFTAYYPGDSWGQGTQVTVSS,low polyreactivity
17,QVQLVESGGGLVQAGGSLRLSCAASGLTFGGNAMGWYRQAPGKERELVAAISGSGGRTYYADSVKGRFTISRDNEKNTVYLQMNSLKPEDTAVYYCNAATNRRTSDYWGQGTQVTVSS,high polyreactivity
18,QVQLVESGGGLVQAGGSLRLSCAASGLTFGGSAMGWYRQAPGKERELVAGISSSGNTNYADSVKGRFTISRDNAKNTVYLQMISLKPEDTAVYYCAADENITYPVYDMYYWGQGTQVTVSS,low polyreactivity
19,QVQLVESGGGLVQAGGSLRLSCAASGLTFGNYSKGWYRQAPGKERELVAAISKRGGTTYYADSVKGRFTISRDNAKNTVYLQMNSLKPEDTAVYYCAAQVGRGYEVYPVYKYGYWGQGTQVTVSS,high polyreactivity
20,QVQLVESGGGLVQAGGSLRLSCAASGLTFGRYAMGWYRQAPGKERELVAVINRGGNTYYADSVKGRFTISRDNAKNTVYLQMNSLKPEDTAVYYCAADYLRWAGRYFSWDYDYWGQGTQVTVSS,high polyreactivity
21,QVQLVESGGGLVQAGGSLRLSCAASGLTFGRYTMGWYRQAPGKERELVAAISYSGGSTYYADSVKGRFTISRDNAKNTVYLQMNSLKPEDTAVYYCAKRWTGLGGYYYWGQGTQVTVSS,high polyreactivity

row,Sequence,polyreactivity (PSR sort gate)
1,QVQLVESGGGLVQAGGSLRLSCAASGLTFGSNTMGWYRQAPGKERELVAAITSNGGSTYYADSVKRRFTISRDYAKNTVYLQMNSLKPEDTAVYYCAARSYDGYYRYYYWGQGTQVTVSS,low polyreactivity
2,QVQLVESGGGLVQAGGSLRLSCAASGLTFGTNSMGWYREAPGKEMELVAAISTSSGSTYYADSVKGRFTISRDNAKNTVYLLMNRLKPEDTAVFYCAAVTVTKLSYYRYYYWGQCTQVTVSS,low polyreactivity
3,QVQLVESGGGLVQAGGSLRLSCAASGLTFGTYAMGWYRQAPGKERELVAAISGTGGTTYYADSVKGRFTISRDNAKNTVYLKMNSLKPEDTAVYYCNKRWRRPYPYDYWGQGTQVTVSS,high polyreactivity
4,QVQLVESGGGLVQAGGSLRLSCAASGLTFGVNAMGWSRQAPGKERELVAAISGSGGRTNYADSVKGRFTISRDNAKNTVYLQMNSLKPEDTAVYYCNARFPDWALSEISHSTTYGYWGQGTQVTVSS,low polyreactivity
5,QVQLVESGGGLVQAGGSLRLSCAASGLTFGYNAMGWYRQAPGKERELVAAISSNGGRTYYADSVKGRFTISRDNAKNTVYLQMNSLKPEDTAVYYCNVVYSRSRPYDYWGQGTQVTVSS,high polyreactivity
6,QVQLVESGGGLVQAGGSLRLSCAASGLTFHPYAMGWYRQAPGKERELVAAISSRGTSTYYADSVKGRFTISRDNAKNTVYLQMNSLKPEDTAVYYCAAEVITIGLYRYGYWGQGTQVTVSS,high polyreactivity
7,QVQLVESGGGLVQAGGSLRLSCAASGLTFHRYAMGWYRQAPGKERELVAAINYSGGRTYYADSVKGRFTISRDNAKNTVYLQMNSLKPEDTAVYYCAAPRASGYYWGQGTQVTVSS,high polyreactivity
8,QVQLVESGGGLVQAGGSLRLSCAASGLTFIDYAMGWYRQAPGKERELVAAITKSGGGTYYADSVKGRFTISRDNAKNTVYLQMNSLKPEDTAVYYCAAVYRTRLYYYWGQGTQVTVSS,high polyreactivity
9,QVQLVESGGGLVQAGGSLRLSCAASGLTFIEYAMGWYRQAPGKERELVAAISSGGRTYYADSVKGRFTISRDNAKNTVYLQMNSLKPEDTAVYYCNARGYRRWYNYWGQGTQVTVSS,high polyreactivity
10,QVQLVESGGGLVQAGGSLRLSCAASGLTFILNAMGWYRQAPGKEREFVAAISRSGVRTYYADSVKGRFTISRDNAKNTVYLQMNSLKPEDTAVYYCARVAPASGVRWYYYWGQGTQVTVSS,high polyreactivity
11,QVQLVESGGGLVQAGGSLRLSCAASGLTFIYYAMGWYRQAPGKERELVAGITRRGGSTYYADSVKGRFTISRDNAKNNVYLQMNSLKPEDTAVYYCAKSPVYRFDSWGQGTQVTVSS,high polyreactivity
12,QVQLVESGGGLVQAGGSLRLSCAASGLTFIYYAMGWYRQAPGKEWELVAAISVSGGSTYYADSVKGRFTISRDNAKNTVYLQMNSLKPEDTAVYYCAADWFVHKPRYHSTFDFWGQGTQVTVSS,low polyreactivity
13,QVQLVESGGGLVQAGGSLRLSCAASGLTFKFYDMGWYRQAPVKEREFVAGITSSGGTTYYADSVKGRFTISRDNAKNTVYLQMNSLKPEVTAVYYCAAADIDDGPFDSWGQGTQVNVSS,low polyreactivity
14,QVQLVESGGGLVQAGGSLRLSCAASGLTFKTYAMGWYRQAPGKERELVAAISRSGGSTSYADSVKGRFTISRDNAKNTVYLQMNSLKPEDTAVYYCAAKTYEPRKYEYWGQGTQVTVSS,high polyreactivity
15,QVQLVESGGGLVQAGGSLRLSCAASGLTFKVNPMGGYRQAPGKERELVPAISSGDRTYYADSVKGRFTISRDNAKNTVDLQMNSLKPEDTAVYYCNARGHNRYGTLLGFGRVPGYDYWGQGTQVTVSS,low polyreactivity
16,QVQLVESGGGLVQAGGSLRLSCAASGLTFKYYAMGWYRQAPGKERELVAAINRSGSSTYYADSVKGRFTISRDNAKNTVYLQMNSLKPEDTAVYYCAKDSFTSTRQYDYWGQGTQVTVSS,low polyreactivity
17,QVQLVESGGGLVQAGGSLRLSCAASGLTFMYYAMGWYRQAPGKERELVAAISKGGGSTYYADSVKGRFTISRDNAKNTVYLQMNSLKPEDTAVYYCNADKVTRVTYWDDSWGLGTQVTVSS,high polyreactivity
18,QVQLVESGGGLVQAGGSLRLSCAASGLTFNAYPMGCYRQAPGKEWELVAAITSRGSSTYYADSVKGRFTISRDNAKNTVYLQMNSLKPEDTAVYYCAARQRGYYYSRRYDYWGQGTQVTVSS,high polyreactivity
19,QVQLVESGGGLVQAGGSLRLSCAASGLTFNFYAKGWYRQAPGKEREFVAAISRSGGSTHYADSVKGRFTISRDYAKYTVYLQMYSLKPEDTAVYYCAADGGRKNYDYWGQGTQVTVSS,high polyreactivity
20,QVQLVESGGGLVQAGGSLRLSCAASGLTFNPNAMGWYRQAPGKERDLVADITYRGGSTYYADSEKGRFTISRDNAKNTDYLQMYSLKPEDTAVYYCAAQYIGWHLYWYDYWGQGTQVTVSS,low polyreactivity
